Assay: soluble on expression in E. coli; label from the status in PepcDB or PDB records

| Sequence | soluble on expression in E. coli |
| --- | --- |
| MKIRYKFGVWMLCLMFPALVWAENAKSICTSFTQQGRQVTFHLADSAALQLQLCSPSVVRIWFSPDGKLQRRNASFAVINEELEDVGTVHVDEQAACYEIFTSKLRIRVNKSPMSIQIFDKYQKLLFSDYADKGHVSEGTKKVEYKTLRRDEHFFGLGEKTGKMDRRGESYKMWNSDKPCYSVVEDPLYKSIPFFMSSYRYGIFLDNTYKTEFKFGTESRDYYSFEAPDGEMIYYFIFGKDYKEILSQYVGLTGKPIMPPKWALGFAQCRGLLTSEKLSREIAEGYRTRGIPCDIIYQDIGWTEHLQDFEWRKGNYGHPKKMLADLKEMGFKVVVSQDPVISQANKKQWEEADRLGYFVKDSTNGKSYDMPWPWGGNCGVVDFTLPAVADWWGTYQQKPIDDGISGFWTDMGEPAWSNEEQTERLVMKHHLGMHDEIHNVYGLTWDKVVKEQFEKRNPNRRVFQMTRAAYAGLQRYTFGWTGDCGNGDDVLQGWGQLANQIPVILSAGLGVIPFTTCDITGYCGDIEDYHPFAELYTRWIQFGAFNPLSRIHHEGDNPVEPWLFGPEAEKNAKEAIELKYRLLPYIYTYAREAHDTGLPIMRPLFLEYPADMETFSTDGQFLFGQELLVAPVVKKGARTKNVYLPEGTWIDYNNKQTVYTGEQWTTVEAPLSCIPMFVKQGSIIPTMPVMNYTHEKPVYPLIFEVFPAPKGEEASFTLYEDEGEDLGYQRDEFAKTPVRFRTEEGGYLLSVGAREGKGYAVPAPRNFIFRMYLKTAPKGVTVQGKKVKKVKPERLEENPDDDTESMVWSWDKATGICSLRMPDRGEESRISLRL | not soluble |
| MKISMEGSSVINLEQLSLYQDSLGYLGQQMNFPEKMTFHPKIFEETISKSHPGYEDLLAYREVMMNYTLSEIKAIYTDTFDFSKKHPLYMTFNKFDTQKERGQMLAKLKVLYEMFGLKMVDNELSDFLPLMLQFLQVADFKNDSRAQENLQLVIMIIEDGTYEMANTLAENNNPYAYVVSALRKTLKACIVPLKEVENHA | not soluble |
| MKITHCKLKKKVQKELLRFFVLEVTARSAADILGIHPNSAVLFYRKIRTVINHHLALAADEVFEGPVEPDESDFGGRRKGRRGRGAAGKVVVFGILKRNGRGYTVVVDNAKSETLLPVIKKKIMPDSIVYTDSLSSCDKLDVSGFIHYRINHSKEFADRQNHINGIENFWNQAKRVLRKYNGIDRKSFPLFLKECEFRFNFGTPSQQLKILRDWCGILEHHHHHH | soluble |
| MKITIIGAGNIGSAVAACLAKGHLYNEKDIIISTPHTDKLENLHKQFPAIRIMTENQYAISEADIIILAVKPCIVDEVLSPLRFSRTQILVSLVTGISISHLAHLSETEMPIFRVVPNIAITEHSSLTLITSRKAGKEHQQLIKQTFEEGGKCLFAEEKQLDIISALTSSGIAFALKYIHAAMQAGIELGISAEDAMRMTAYSMEGATELILNHDTHPLLEIEKAATPGGATIKGLNELEHRGFTSAVIHAIKSSATVSTDKETEE | not soluble |
| MKITTWNVNSLNVRLPQVQNLLADNPPDILVLQELKLDQDKFPAAALQMMGWHCVWSGQKTYNGVAIVSRSVPQDVHFGLPALPDDPQRRVIAATVSGVRVINVYCVNGEALDSPKFKYKEQWFAALTEFVRDEMTRHGKLVLLGDFNIAPADADCYDPEKWHEKIHCSSVERQWFQNLLDLGLTDSLRQVHPEGAFYTWFDYRGAMFQRKLGLRIDHILVSPAMAAALKDVRVDLETRALERPSDHAPVTAEFDW | soluble |
| MKITYIHHSSFLVELEHVSMLFDYYAGQLPEIRKDRPLVVFASHFHGDHFAPVIFDLAKDREDVNYVLSKDISKKKVPDNLIGRVTFVKAGEKLALYTEGRKAGLEIETFKSTDEGVAFWITCEGSTIYHAGDLNNWWWEGEDKAWNHNMAANYAHEMEKMEGRTVDAAFVPLDPRLEQWFYLGMKEFMEKVDAKAVIPMHFWKDYSIIEKMRQHPSSEGWRERLVEIHREGEELAI | not soluble |
| MKKAAVSGRLYEVFDVFADKALAGNPLAIVHDCEGLTDACMQAIAREFNLSETVFIHAPANPAHEASVRIFTPAYELPFAGHPTVGAAVSLARRQKTGDETDRLVTLEEKVGIVRCGVILGENSAFAEFDLPRLPEQVDVKIEREEAAAAIGLGTHEIGFENHVPGVWSAGTPCLLVPVHNLIAAAKVSIDPVYVSESLPHVGGRPLPIYVYCRETILFNSHFHARMFVIGANVYEDPATGSAVAAFAGMIQQNDKPVDGSSQWWIEQGMEMGRPSRIRLELDVSKQKLVSARIGGTAVKIAEGRLFVLEHHHHHH | not soluble |
| MKKEIKFSLMYRDMWQSSGKYQPRKDQLERIAPVIVEMGCFARVETNGGAFEQVNLLYGENPNKAVRAFTKPLNEAGIQTHMLDRGLNGLRMFPVPADVRRLMYKVKKAQGVDITRIFDGLNDARNIIPSIKYALEAGMIPQATLCITFSPVHTVEYYSNLADELIAAGAPEICLKDMAGIGRPHFLGQLVKSIKTKHPDVIIEYHGHSGPGFSVASMLEVCENGADIIDVAMEPISWGKVHPDVITIQQMLKDAGFKVPEINMDAYMKARSLTQEFIDDFLGYFMDPSNKETSSLLVGCGLPGGMMGSMMADLKGVHAGINMFLKGKGEPEMTIDQLLVRLFQEVEYVWPRLGYPPLVTPFSQYVKNVALMNVYNMIRGEGRWQAIDQNTWGMILGKSGRLPGKLDPEIIALAKEKGMEFSDADPQQFYPDALDEFRKEMDQNGWEYGPDDEELFELAMHDRQYRDYKSGVAKERFNADLDKAKADRMAKQGYSDEDIKKAKRAGCDPIVAPCSGRLYWEIDTEEQSIAPAIGAEYRTGQPFCYIENQFGYIEKVYCTFTGRITEVVAQGTVVKKGDEIAYLRTAEKEIMWEGANEHIVRVETMPEPRKRITKSAQKN | not soluble |
| MKKEVTEISSYDATNLVFYVNGKRVEEKDVDPKMTLATYLRDKLKLTGTKIGCNEGGCGACTIMISHIENGEIKHFSANSCLMPVCGVFGKAVTTVEGIGSVAKNRLHPVQERLAKAHGSQCGFCTPGFVMAMYALLRNNPNPTISDINLGLQGNLCRCTGYRPILEAFYSFAVDESGTLKVTEENGCGMGENCCKVKKTACGGSDETTPGYTGGERKRKIQLSDMSDCKPYDPTQELIFPPELKLHGYESMSFAYDHHHTKWYQPVSYDDLLSLKRELPHARLISGNSELAIELKFRFIDLPAVINPRQVKVLHEKHLENDGVYMGTGMSLTDMDNYSVQLMKDLPREQTAVLKHVHEMLHWFAGIHVRNVASVAGNIATASPISDLNPIWMASNALVVLDSEARGEKRVHIDEKFFLGYRKTVIQQDEIIKAVIVPLLEENEHFAAYKQAQRREDDIAIVTGAFLVKLDPKTLVVEKIRISYGGMAPTTKLALTTMEKLIGEKWSQTFLDKALGLLSDELKLPAGVPGGMSQYRLSLALSFFFKFFLGVSKKLELTEIKYVDADVKIGQNVPETLYATQLYQEVKANQPAHDPLGRPIKHVSGDKHTTGEAVYCDDINVADCNHIAFVLSPIAHGTLNSIDYTAALEIDGVVGTIDASDVTTGAQMGHHSDTPVFVKETITFHGQPIAAIVATDHEIARKAASLVKLDYSVEKPIVTIKQALEAESFVFKHFVIHSSLNDNEQVIKSDWSKYDRIVEGSIDMGGQEHFYLETQQCIVIPHEDDELEIIISNQCVNDVQIEVAKCLGMAQHKISTKVKRIGGGFGGKESTGAILAVPASLAAKKFGRPMKFKFERFDDMAITGTRHPFTLQYKLAVDENGKFLDLDYTALSNSGHTIDLSMGVMQRAMVHADNVYKFENADITGKMCKTNLASNTAFRGFGGPQGMFGTEIMVKHVAEKFGFNHDEVRVKNFYKEGDCTPFGMHLNQCNVTRTWDECRKNSDYDNRLEEVKKFNDSNKFRKRGIYLTPTRFGIGFGLKQLNQAGALVLVYTDGSVLVSHGGMEMGQGLHTKILQIAARCLEIPIERIHIHDTSTDKVPNASATAASVGSDMNGLAVQDACRQINERLERFKKLDPNGTWDDWVKAAYVDRVSLSASGFGIIHHEPVDFFNGKGAELFGYSVYGTACCEVEIDCLTGDHHLLRTDIVMDVGESLNPAIDIGQIEGAFIQGYGLFTMEEIKIRPDGIRLTRGPGNYKIPSADDAPRHFNVSLLGNSSNKMGIFSSKAIGEPPLFLGSCAFFAIREAVRAYRIQNGNADYFVFHSPATPERIRMACEDFVTSHVPELPEEGTYTPWITSV | not soluble |
| MKKFALATIFALATTSAFAGFNGNNSQGGFQQAAPAAISVKQALSAADNSMITLVGNITQQIDDDEFWFTDGTGQIKIEIKKRVWNGLNVDSKDKVKIYGKLDNEVFEKAELDVLRIEKAE | not soluble |
| MKKHIKNLFLLAAICLTVACKEQLYTGLTEKEANQMQALLLSNDVNVSKEMDKSGNMTLSVEKEDFVRAITILNNNGFPKKKFADIEVIFPPSQLVASPSQENAKINYLKEQDIERLLSKIPGVIDCSVSLNVNNNESQPSSAAVLVISSPEVNLAPSVIQIKNLVKNSVDDLKLENISVVIKSSSGQDG | not soluble |
| MKKHVMLVKPFSLEDEKDSENTPPNLIQRILSLFKNVRPGSDLTNFQLPPQMNLARSQLQCYGEIVYSFDGHDLLGECSRRDKPIERMKAMVTWYISTLRPLIFGLAPYNPVIGETHHVSNGHINVLAEQISHHPPVSALHATHEKENVDVLLCQYFTPKFRGAYVDVEVKGKRVVKLLNHKETYEMNQPKLLMTFLPAMGAHWAGKIVIKCPETGLGAELQLLSDSFLSRFTGNNKRAIKGKIFESSSRKQLYEISGHWDRTVTAKNTKTGQLEVIYKASENIAKLKTPIVENLQEVSESESAVVWGEVSEGIVTNNWEKAREAKRDVEEKQRESLRKRKASGQSWIPKHFSVARTGKDWDCVPLQPTVPRAPIVVPL | soluble |
| MKKIILIGSGGSGKSTLARQLGNKLNIKVHHLDALFWKPNWEGVPREEQITVQNNLIKDEKWIIDGNYGGTMGIRLNAADTIIFLDIHRTICVYRAFKRIVKYRNKTRPDMGAGCEERFDLQFFKWIWEYPNAKRPTILKELEQLPEEKKVIVLKSPNEVRKFLEHI | soluble |
| MKKIISLALALALSASAAELKMATTTSTDNTGLLDALKPLYEKESGNTLKWVAVGTGAALKMGEDCNADVLFVHSPKAEKEFMKKGFGVDRTPVMYNDFIIIADKSLASKFKGKNLKESLELIKNEKLTFISRGDKSGTDNKEKSLWKNLGGVPEKQSWYQQSGQGMLASIKIAEEKKGVILTDRGTYIKYEANEKGKPNLVIVNEGDDSLKNFYSVIATNPKHCKNVNYTEASKFIKWVTSDKTLNFIADFKLLNKPLFVIDAKTRKD | not soluble |
| MKKIRLAVIGTGMAWERLHYPAIKELEDKYEIVALCNRTRKDAEEFAKKINLSMDRVYDDYNEMLKRQDIDAVDILVPIESNYTVSEAVAKAGKDFICEKPLAANREEAKKYLELSKKYNVRIMIAENYRYSDEYNKIRDIVNSGKIGDVVYFIKNNISCFPCEMTKDTFAATEWRQHPKFYGGAFLDAAVHDIAAMRHIFGAVECVQAFGKPQAEDFNPYVSVNAHILFKNGVIGYYTYYPSGIETQKPAVGFRIFGTKGEIYLEDKTCGIINVSYHDGTSELVNFIPERGFYNELLNYYNAINGTEQISVTPEMEYGDVKMVFDILDSVSFREIIYVDEEEPKRRLEIADDEAKIHPFLQ | not soluble |
| MKKIVLYGGQFNPIHTAHMIVASEVFHELQPDEFYFLPSFMSPLKKHHDFIDVQHRLTMIQMIIDELGFGDICDDEIKRGGQSYTYDTIKAFKEQHKDSELYFVIGTDQYNQLEKWYQIEYLKEMVTFVVVNRDKNSQNVENAMIAIQIPRVDISSTMIRQRVSEGKSIQVLVPKSVENYIKGEGLYEH | soluble |
| MKKLIIATVLASISLSASAAETIRFAAEATYPPFEFIDANNKMQGFDIDLANALCKEMQADCTFTNQAFDSLIPSLKFKRFDAVISGMDITPERQKQVAFTQPYYDNSALFIAQKDKVADLAALKGKRVGMQNGSTHQKYLMEKHPEITAVPYDSYQNAILDLKNGRLDAVFGDTAVVNEWLKQNDQLAAVGDKVTDADYFGTGLGIAVRQSNTELQGKLDAALTKVKADGTYQTIYKKWFQQ | not soluble |

From the DeepSol protein solubility set
